Source: paper PMC9482650, “Quantitative fragmentomics allow affinity mapping of interactomes” (Nature Communications, 2022)

T1: LIN7B, Q9HAP6
T1 sequence (Q9HAP6 88-185, limits assumed, looked up): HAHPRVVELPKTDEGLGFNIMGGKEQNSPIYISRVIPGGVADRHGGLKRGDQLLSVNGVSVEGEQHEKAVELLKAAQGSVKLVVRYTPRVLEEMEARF

T2: SIPA1L2, Q9P2F8
T2 sequence (Q9P2F8 945-1036, limits assumed, looked up): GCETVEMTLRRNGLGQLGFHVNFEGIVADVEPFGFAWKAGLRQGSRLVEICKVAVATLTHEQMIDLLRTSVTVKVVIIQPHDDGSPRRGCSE

T3: DLG3_3, Q92796
T3 sequence (Q92796 374-475, limits assumed, looked up): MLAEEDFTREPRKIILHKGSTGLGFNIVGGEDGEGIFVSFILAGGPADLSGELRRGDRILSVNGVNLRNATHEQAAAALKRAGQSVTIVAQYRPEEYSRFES

T4: HTRA3, P83110
T4 sequence (P83110 354-453, limits assumed, looked up): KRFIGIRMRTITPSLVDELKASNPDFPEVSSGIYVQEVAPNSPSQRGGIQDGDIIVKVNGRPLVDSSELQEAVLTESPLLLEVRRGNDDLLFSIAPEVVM

T5: MPP7, Q5T2T1
T5 sequence (Q5T2T1 134-230, limits assumed, looked up): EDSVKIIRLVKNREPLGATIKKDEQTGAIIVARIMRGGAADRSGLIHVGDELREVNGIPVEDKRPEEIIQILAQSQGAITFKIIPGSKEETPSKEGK

T6: PDZRN3_1, Q9UPQ7
T6 sequence (Q9UPQ7 244-349, limits assumed, looked up): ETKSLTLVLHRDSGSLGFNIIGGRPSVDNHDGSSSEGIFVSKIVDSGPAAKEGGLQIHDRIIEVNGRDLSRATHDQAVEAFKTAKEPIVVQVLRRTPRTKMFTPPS

T7: GRIP1_4, Q9Y3R0
T7 sequence (Q9Y3R0 467-571, limits assumed, looked up): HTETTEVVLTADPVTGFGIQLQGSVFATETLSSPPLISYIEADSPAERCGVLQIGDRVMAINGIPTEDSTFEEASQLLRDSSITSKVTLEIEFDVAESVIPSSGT

T8: GRIP1_3, Q9Y3R0
T8 sequence (Q9Y3R0 247-346, limits assumed, looked up): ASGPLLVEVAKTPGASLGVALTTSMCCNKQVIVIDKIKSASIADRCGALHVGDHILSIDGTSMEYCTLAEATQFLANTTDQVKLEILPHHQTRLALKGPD

T9: DFNB31_1, Q9P202
T9 sequence (Q9P202 135-233, limits assumed, looked up): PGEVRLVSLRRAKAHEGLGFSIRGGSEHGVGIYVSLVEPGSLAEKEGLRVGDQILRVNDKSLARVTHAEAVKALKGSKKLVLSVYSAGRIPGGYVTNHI

T10: ARHGEF11, O15085
T10 sequence (O15085 42-136, limits assumed, looked up): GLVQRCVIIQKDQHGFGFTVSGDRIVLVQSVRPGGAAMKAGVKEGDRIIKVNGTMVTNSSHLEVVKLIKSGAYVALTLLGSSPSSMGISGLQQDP

T11: DFNB31_3, Q9P202
T11 sequence (Q9P202 811-907, limits assumed, looked up): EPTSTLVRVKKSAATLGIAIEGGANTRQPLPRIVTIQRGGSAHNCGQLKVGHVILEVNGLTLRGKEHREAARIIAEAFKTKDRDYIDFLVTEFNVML

T12: LIN7C, Q9NUP9
T12 sequence (Q9NUP9 88-185, limits assumed, looked up): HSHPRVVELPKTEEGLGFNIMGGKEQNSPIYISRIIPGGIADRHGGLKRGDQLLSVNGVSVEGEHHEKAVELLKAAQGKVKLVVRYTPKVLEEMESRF

T13: SNTA1, Q13424
T13 sequence (Q13424 82-180, limits assumed, looked up): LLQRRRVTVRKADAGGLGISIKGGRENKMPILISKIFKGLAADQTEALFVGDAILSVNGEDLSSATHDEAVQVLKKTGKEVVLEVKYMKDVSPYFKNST


How the values were obtained:
Test in all cases: holdup assay
Design in all cases: key: below the threshold = too weak to quantify, mostly under pKd 3.1 to 4
Details in all cases: plain residues with an end cap or a label only (N-terminal biotin on a linker: ado-ado)
Inadl_2, Q8NI35 = target: Inadl_2, Q8NI35
LIN7B, Q9HAP6 = target: T1, LIN7B, Q9HAP6
SIPA1L2, Q9P2F8 = target: T2, SIPA1L2, Q9P2F8
DLG3_3, Q92796 = target: T3, DLG3_3, Q92796
HTRA3, P83110 = target: T4, HTRA3, P83110
MAGI2_4, Q86UL8 = target: MAGI2_4, Q86UL8
MPP7, Q5T2T1 = target: T5, MPP7, Q5T2T1
PDZRN3_1, Q9UPQ7 = target: T6, PDZRN3_1, Q9UPQ7
GRIP2_5, Q9C0E4 = target: GRIP2_5, Q9C0E4
GRIP1_4, Q9Y3R0 = target: T7, GRIP1_4, Q9Y3R0
GRIP1_3, Q9Y3R0 = target: T8, GRIP1_3, Q9Y3R0
DFNB31_1, Q9P202 = target: T9, DFNB31_1, Q9P202
CASK, O14936 = target: CASK, O14936
GORASP2, Q9H8Y8 = target: GORASP2, Q9H8Y8
FRMPD4, Q14CM0 = target: FRMPD4, Q14CM0
GORASP1, Q9BQQ3 = target: GORASP1, Q9BQQ3
DLG4_2, P78352 = target: DLG4_2, P78352
GOPC, Q9HD26 = target: GOPC, Q9HD26
GRID2IP_1, A4D2P6 = target: GRID2IP_1, A4D2P6
ARHGEF11, O15085 = target: T10, ARHGEF11, O15085
GIPC2, Q8TF65 = target: GIPC2, Q8TF65
NHERF4_2, Q86UT5 = target: NHERF4_2, Q86UT5
DFNB31_3, Q9P202 = target: T11, DFNB31_3, Q9P202
LIN7C, Q9NUP9 = target: T12, LIN7C, Q9NUP9
SNTA1, Q13424 = target: T13, SNTA1, Q13424

Sequence of MAGI2_4, Q86UL8 (Q86UL8 772-865): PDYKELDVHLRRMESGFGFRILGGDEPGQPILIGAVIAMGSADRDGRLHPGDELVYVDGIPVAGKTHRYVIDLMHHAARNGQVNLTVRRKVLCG
Sequence of FRMPD4, Q14CM0 (Q14CM0 67-160): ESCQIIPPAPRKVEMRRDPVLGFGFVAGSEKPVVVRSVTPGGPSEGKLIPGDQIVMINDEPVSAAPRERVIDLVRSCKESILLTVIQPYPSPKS
Sequence of GRIP2_5, Q9C0E4 (Q9C0E4 544-642): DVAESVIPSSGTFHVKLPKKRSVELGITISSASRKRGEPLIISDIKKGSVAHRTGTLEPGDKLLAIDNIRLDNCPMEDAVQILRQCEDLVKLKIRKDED
Sequence of NHERF4_2, Q86UT5 (Q86UT5 220-308): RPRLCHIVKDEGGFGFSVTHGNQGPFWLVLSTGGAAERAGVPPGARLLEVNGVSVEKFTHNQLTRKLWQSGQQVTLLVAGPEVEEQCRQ
Sequence of DLG4_2, P78352 (P78352 155-259): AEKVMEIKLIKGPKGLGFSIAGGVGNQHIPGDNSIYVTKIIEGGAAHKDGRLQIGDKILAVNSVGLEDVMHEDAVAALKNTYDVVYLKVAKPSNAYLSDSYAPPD
Sequence of GRID2IP_1, A4D2P6 (A4D2P6 1-87): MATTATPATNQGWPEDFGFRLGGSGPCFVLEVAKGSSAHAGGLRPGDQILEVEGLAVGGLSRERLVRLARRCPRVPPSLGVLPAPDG
Sequence of Inadl_2, Q8NI35 (Q8NI35 238-335): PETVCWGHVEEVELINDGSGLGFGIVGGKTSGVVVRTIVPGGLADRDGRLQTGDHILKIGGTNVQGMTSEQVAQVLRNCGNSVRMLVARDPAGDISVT
Sequence of GORASP1, Q9BQQ3 (Q9BQQ3 1-208): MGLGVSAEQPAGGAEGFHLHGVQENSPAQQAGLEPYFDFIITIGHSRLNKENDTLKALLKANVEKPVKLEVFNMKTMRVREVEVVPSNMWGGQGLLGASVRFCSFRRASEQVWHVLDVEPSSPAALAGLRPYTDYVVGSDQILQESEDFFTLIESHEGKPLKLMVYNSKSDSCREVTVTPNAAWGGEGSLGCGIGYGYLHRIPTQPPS
Sequence of CASK, O14936 (O14936 487-570): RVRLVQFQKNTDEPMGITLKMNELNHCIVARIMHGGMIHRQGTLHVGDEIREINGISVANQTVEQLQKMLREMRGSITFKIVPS
Sequence of GIPC2, Q8TF65 (Q8TF65 112-203): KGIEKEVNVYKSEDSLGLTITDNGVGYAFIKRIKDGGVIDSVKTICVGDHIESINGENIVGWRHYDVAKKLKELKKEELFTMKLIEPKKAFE

pKd (Inadl_2, Q8NI35) | pKd (LIN7B, Q9HAP6) | pKd (SIPA1L2, Q9P2F8) | pKd (DLG3_3, Q92796) | pKd (HTRA3, P83110) | pKd (MAGI2_4, Q86UL8) | pKd (MPP7, Q5T2T1) | pKd (PDZRN3_1, Q9UPQ7) | pKd (GRIP2_5, Q9C0E4) | pKd (GRIP1_4, Q9Y3R0) | pKd (GRIP1_3, Q9Y3R0) | pKd (DFNB31_1, Q9P202) | pKd (CASK, O14936) | pKd (GORASP2, Q9H8Y8) | pKd (FRMPD4, Q14CM0) | pKd (GORASP1, Q9BQQ3) | pKd (DLG4_2, P78352) | pKd (GOPC, Q9HD26) | pKd (GRID2IP_1, A4D2P6) | pKd (ARHGEF11, O15085) | Binder | other results
below the threshold | below the threshold | below the threshold | below the threshold | below the threshold | below the threshold | below the threshold | below the threshold | below the threshold | below the threshold | below the threshold | below the threshold | below the threshold | below the threshold | 4.9 | 4.32 | below the threshold | below the threshold | below the threshold | 3.95 | FLVTEFNVML [DFNB31, Q9P202] | pKd (GIPC2, Q8TF65): below the threshold; pKd (NHERF4_2, Q86UT5): below the threshold; pKd (DFNB31_3, Q9P202): below the threshold; pKd (LIN7C, Q9NUP9): below the threshold; pKd (SNTA1, Q13424): 3.73
below the threshold | 3.65 | below the threshold | below the threshold | below the threshold | 4.34 | below the threshold | below the threshold | below the threshold | below the threshold | below the threshold | below the threshold | below the threshold | 3.92 | below the threshold | below the threshold | 4.23 | 3.74 | below the threshold | 5.03 | YAEKRMLTEV [KCNA6, P17658] | pKd (GIPC2, Q8TF65): below the threshold; pKd (NHERF4_2, Q86UT5): below the threshold; pKd (DFNB31_3, Q9P202): 4.15; pKd (LIN7C, Q9NUP9): 3.52; pKd (SNTA1, Q13424): below the threshold
below the threshold | 3.68 | 3.58 | 3.75 | below the threshold | 3.9 | below the threshold | below the threshold | below the threshold | below the threshold | below the threshold | below the threshold | below the threshold | 3.67 | below the threshold | below the threshold | 4.09 | below the threshold | below the threshold | 4.4 | AHGSTRDQSI [KCNB1, Q14721] | pKd (GIPC2, Q8TF65): below the threshold; pKd (NHERF4_2, Q86UT5): below the threshold; pKd (DFNB31_3, Q9P202): 3.77; pKd (LIN7C, Q9NUP9): below the threshold; pKd (SNTA1, Q13424): below the threshold
4.38 | below the threshold | below the threshold | below the threshold | 5.46 | 3.82 | 3.96 | below the threshold | below the threshold | below the threshold | below the threshold | below the threshold | below the threshold | 5.82 | 3.68 | 5.29 | below the threshold | below the threshold | below the threshold | 3.8 | PALKNGQYWV [CSPG4, Q6UVK1] | pKd (GIPC2, Q8TF65): below the threshold; pKd (NHERF4_2, Q86UT5): below the threshold; pKd (DFNB31_3, Q9P202): below the threshold; pKd (LIN7C, Q9NUP9): 4.15; pKd (SNTA1, Q13424): below the threshold
below the threshold | below the threshold | below the threshold | 3.6 | below the threshold | below the threshold | below the threshold | 4.24 | below the threshold | below the threshold | below the threshold | 3.98 | below the threshold | below the threshold | 4.23 | below the threshold | 3.58 | 4.18 | below the threshold | 4.95 | EAVTVESTSL [SLC22A11, Q9NSA0] | pKd (GIPC2, Q8TF65): below the threshold; pKd (NHERF4_2, Q86UT5): below the threshold; pKd (DFNB31_3, Q9P202): below the threshold; pKd (LIN7C, Q9NUP9): below the threshold; pKd (SNTA1, Q13424): 3.65
below the threshold | 3.69 | below the threshold | below the threshold | below the threshold | 3.7 | below the threshold | below the threshold | below the threshold | below the threshold | below the threshold | below the threshold | below the threshold | 4.33 | below the threshold | 4.13 | 4.49 | 3.61 | below the threshold | 4.24 | PEKVSNTTVV [IGSF5, Q9NSI5] | pKd (GIPC2, Q8TF65): below the threshold; pKd (NHERF4_2, Q86UT5): below the threshold; pKd (DFNB31_3, Q9P202): 3.83; pKd (LIN7C, Q9NUP9): below the threshold; pKd (SNTA1, Q13424): 3.93
